Results on one molecule are retold here after paper doi:10.1101/2021.02.17.431757 (bioRxiv, 2021).

The experiment has as its target GST-TopBP1 (aa 32-1522) His, recombinant (UniProt Q92547 32-1522). Briefly: pull-down.

Sequence of GST-TopBP1 (aa 32-1522) His, recombinant (Q92547 32-1522): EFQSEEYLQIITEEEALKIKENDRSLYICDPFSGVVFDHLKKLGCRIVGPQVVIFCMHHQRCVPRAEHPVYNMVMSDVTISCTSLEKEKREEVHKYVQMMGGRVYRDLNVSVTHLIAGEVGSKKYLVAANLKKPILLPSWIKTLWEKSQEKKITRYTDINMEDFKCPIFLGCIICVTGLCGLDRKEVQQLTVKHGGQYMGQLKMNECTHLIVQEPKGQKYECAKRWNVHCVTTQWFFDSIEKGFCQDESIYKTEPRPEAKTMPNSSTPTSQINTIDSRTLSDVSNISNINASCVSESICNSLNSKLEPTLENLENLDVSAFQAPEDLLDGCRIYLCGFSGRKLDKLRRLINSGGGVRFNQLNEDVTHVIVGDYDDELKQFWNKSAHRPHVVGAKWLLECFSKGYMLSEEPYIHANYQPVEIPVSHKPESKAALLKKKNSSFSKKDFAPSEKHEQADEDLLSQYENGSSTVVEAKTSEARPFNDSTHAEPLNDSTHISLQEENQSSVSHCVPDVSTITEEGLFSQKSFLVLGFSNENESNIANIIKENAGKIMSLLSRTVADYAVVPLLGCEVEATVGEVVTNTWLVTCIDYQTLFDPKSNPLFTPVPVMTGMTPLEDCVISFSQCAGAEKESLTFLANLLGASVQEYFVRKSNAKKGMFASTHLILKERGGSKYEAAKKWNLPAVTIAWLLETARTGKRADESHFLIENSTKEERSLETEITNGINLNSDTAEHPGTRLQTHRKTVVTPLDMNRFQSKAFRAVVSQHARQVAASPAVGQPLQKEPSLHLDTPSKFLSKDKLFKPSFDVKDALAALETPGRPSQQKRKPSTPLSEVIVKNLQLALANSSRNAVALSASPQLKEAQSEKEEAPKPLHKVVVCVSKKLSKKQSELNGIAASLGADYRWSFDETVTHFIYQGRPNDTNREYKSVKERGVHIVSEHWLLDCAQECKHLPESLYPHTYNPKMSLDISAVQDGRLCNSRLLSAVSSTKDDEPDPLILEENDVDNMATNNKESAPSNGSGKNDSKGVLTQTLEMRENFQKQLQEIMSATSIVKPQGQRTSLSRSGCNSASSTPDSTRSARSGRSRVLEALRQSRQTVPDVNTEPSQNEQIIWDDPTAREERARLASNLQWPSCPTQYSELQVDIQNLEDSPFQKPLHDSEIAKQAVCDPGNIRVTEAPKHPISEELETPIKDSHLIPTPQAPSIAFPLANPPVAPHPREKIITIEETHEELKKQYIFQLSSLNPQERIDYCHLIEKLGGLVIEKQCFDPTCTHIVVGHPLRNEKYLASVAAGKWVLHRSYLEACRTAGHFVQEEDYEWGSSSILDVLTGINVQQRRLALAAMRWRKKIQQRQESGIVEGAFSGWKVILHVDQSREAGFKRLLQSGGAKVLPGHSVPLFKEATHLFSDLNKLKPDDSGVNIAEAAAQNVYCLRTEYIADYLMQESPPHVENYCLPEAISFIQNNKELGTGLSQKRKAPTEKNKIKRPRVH

B1: His-E2-S23D (amino acids 1-200), recombinant (domain or fragment, human papillomavirus 16 (HPV16), UniProt P03120 1-200, looked up)
chain: METLCQRLNVCQDKILTHYENDDTDLRDHIDYWKHMRLECAIYYKAREMGFKHINHQVVPTLAVSKNKALQAIELQLTLETIYNSQYSNEKWTLQDVSLEVYLTAPTGCIKKHGYTVEVQFDGDICNTMHYTNWTHIYICEEASVTVVEGQVDYYGLYYVHEGIRTYFVQFKDDAEKYSKNKVWEVHAGGQVILCPTSVF
As for B1, the binding result is “binds”.
